Results published in publication PMC7930613, “Exploring the Potential of Cytochrome P450 CYP109B1 Catalyzed Regio—and Stereoselective Steroid Hydroxylation” (Frontiers in Chemistry, 2021).

Legend:
Assay in all cases: HPLC, steroid hydroxylation rate, hyperbolic fit
Type in all cases: biochemical, Bacillus subtilis
Conditions in all cases: 1 mM NADPH, redox partners Fdr_0978 (4 μM) and Fdx_1499 (20 μM), 2 mM MgCl2, pH 8.0, 30°C
[1] = system: T1, C[C@]12CC[C@H]3[C@@H](CCC4=CC(=O)CC[C@@H]43)[C@@H]1CC[C@@H]2O
T1 construct: assayed with separate redox partners Fdr_0978/Fdx_1499
Source text: (§1) HPLC, steroid hydroxylation rate, hyperbolic fit on CYP109B1

[2] = system: T2, [H][C@@]12CC[C@H](O)[C@@]1(C)CCC1=C3CCC(=O)C=C3CC[C@]12[H]
T2 construct: assayed with separate redox partners Fdr_0978/Fdx_1499
Source text: as §1

[3] = system: C[C@]12CC[C@H]3[C@@H](CCC4=CC(=O)CC[C@@]43C)[C@@H]1CC[C@@H]2O
Source text: as §1

[4] = system: C[C@]12CC[C@H]3[C@@H](CCC4=CC(=O)C=C[C@@]43C)[C@@H]1CC[C@@H]2O
Source text: as §1

CYP109B1 (Bacillus subtilis subsp. subtilis str. 168)
Km [1]: 136.3 ± 18.4 µM | kcat [1]: 0.0717 ± 0.00167 s⁻¹ | kcat/Km [1]: 517 M⁻¹ s⁻¹ | Km [2]: 163.1 ± 38.4 µM | kcat [2]: 0.197 ± 0.0117 s⁻¹ | kcat/Km [2]: 1200 M⁻¹ s⁻¹ | Km [3]: 83.7 ± 20.4 µM | kcat [3]: 0.0783 ± 0.005 s⁻¹ | kcat/Km [3]: 933 M⁻¹ s⁻¹ | Km [4]: 193.1 ± 38.2 µM | kcat [4]: 0.0583 ± 0.00333 s⁻¹ | kcat/Km [4]: 300 M⁻¹ s⁻¹
